In US11607466B2, “Tumor and immune cell imaging based on PD-L1 expression” (The Johns Hopkins University, priority 2016, dated 2023):
“And” between values parts separate entries of the source, which are not always exact repeats. Equal entries are not always repeated.

Assays:
PD-L1 in hPD-L1 tumors = target: T1, PD-L1 in hPD-L1 tumors (Homo sapiens, UniProt Q9NZQ7); test: Tumor PD-L1 engagement by AtzMab measured with [64Cu]WL12, hPD-L1/CHO tumors; format: in vivo, mouse; conditions: AtzMab 20 mg/kg 24 h prior to tracer
T1 construct: expressed in transfected cells; grown as tumours in NSG mice for the in vivo units
T1 sequence (Q9NZQ7 19-290): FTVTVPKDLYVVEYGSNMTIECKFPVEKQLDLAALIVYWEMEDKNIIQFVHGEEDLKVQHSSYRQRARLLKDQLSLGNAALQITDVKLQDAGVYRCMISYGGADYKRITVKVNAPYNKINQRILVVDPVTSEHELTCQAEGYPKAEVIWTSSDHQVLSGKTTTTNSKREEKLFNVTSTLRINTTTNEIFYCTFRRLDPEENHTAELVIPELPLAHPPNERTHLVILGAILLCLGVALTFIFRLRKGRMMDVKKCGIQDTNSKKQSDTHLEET
From the text: 2.1.3.3 PD-L1 therapeutic antibody accumulation in the tumors by PD-L1 PET: While evaluating the specificity of WL12 for PD-L1, it was discovered that WL12 competes with AtzMab to the same binding site on PD-L1. This provides a novel and previously unanticipated means to evaluate AtzMab therapy at tumor sites, where it is needed, using PD-L1-directed PET. Improved understanding of the distribution of PD-L1 antibodies in tumors may impact clinical antibody dosing and therapeutic monitoring. Therefore, the ability of [^64Cu]WL12-PET to assess AtzMab binding to PD-L1 within tumors was tested. Accumulation of radioactivity in hPD-L1 tumors was reduced by 80% in mice injected with AtzMab (20 mg/kg) as quantified by [^64Cu]WL12-PET and biodistribution studies (FIG. 21A, FIG. 21B, and FIG. 21C). […] The applicability of this approach was extended to cancer cell lines with native increase in PD-L1 expression.
To assess the effect of a single dose of AtzMab on targeting different PD-L1 levels in the tumors, PET and biodistribution studies were performed in tumors derived from the CHO-hPDL1 cell line, which has four- to ten-fold higher PD-L1 expression than NSCLC cells (FIG. 36). […] Those observations were confirmed by strong and week immunoreactivity observed in hPD-L1 and CHO tumors, respectively (FIG. 35I).

PD-L1 in H226 xenografts = target: T2, PD-L1 in H226 xenografts (Homo sapiens, UniProt Q9NZQ7); test: Tumor PD-L1 engagement by AtzMab measured with [64Cu]WL12, H226 xenografts; format: in vivo; conditions: AtzMab 20 mg/kg for 24 h, vs saline controls
T2 construct: Each of which naturally expresses PD-L1; endogenous in cells; host or cells: HCC827 and H226 NSCLC cells; as xenografts in NOD scid gamma mice for the in vivo units
T2 sequence (Q9NZQ7 19-290): as above
From the text: (§1) 3.3.2 Quantifying Tumor PD-L1 engagement by AtzMab. To evaluate PD-L1 engagement by the therapeutic mAbs at the tumor non-invasively in vivo, NSCLC xenograft models were studied. Those models were selected because nearly 50% of NSCLCs are PD-L1-positive and PD-L1 IHC is used as a predictive biomarker in patients with NSCLC undergoing immune checkpoint therapy (Mansfield, et al., 2016). […] There is a clear reduction in the accumulation of radioactivity in tumors of AtzMab-treated mice, indicating reduced levels of available PD-L1 sites, compared to treated controls (FIG. 35A and FIG. 35B). […] PD-L1 expression levels were confirmed by PD-L1 IHC of the xenografts (FIG. 35C and FIG. 35F).

[1] = target: T3, PD-L1 in HCC827 xenografts (Homo sapiens, UniProt Q9NZQ7); test: Tumor PD-L1 engagement by AtzMab measured with [64Cu]WL12, HCC827 xenografts; format: in vivo; conditions: AtzMab 20 mg/kg for 24 h, vs saline controls
T3 construct: Each of which naturally expresses PD-L1; endogenous in cells; host or cells: HCC827 and H226 NSCLC cells; as xenografts in NOD scid gamma mice for the in vivo units
T3 sequence (Q9NZQ7 19-290): as above
From the text: as §1

[2] = target: T4, PD-L1 in A549-iPDL1 cells (Homo sapiens, UniProt Q9NZQ7); test: Binding studies in doxycycline-inducible A549-iPDL1 cells; format: cell-based; conditions: 60 nM mAb
T4 construct: expressed in transfected cells; host or cells: A549 NSCLC cells, lentiviral pINDUCER20, G418-selected, doxycycline-induced
T4 sequence (Q9NZQ7 19-290): as above
From the text: To do so, an A549 NSCLC cell line with doxycycline-inducible PD-L1 expression (A549-iPD-L1) was generated. A549 is a Kras G12S lung adenocarcinoma cell line that expresses low PD-L1 at baseline.

PD-L1 in MDAMB231 tumors [3] = target: T5, PD-L1 in MDAMB231 tumors (Homo sapiens, UniProt Q9NZQ7); test: Tumor PD-L1 engagement by PD-L1 mAbs measured with [64Cu]WL12, MDAMB231 xenografts; format: in vivo
T5 construct: MDAMB231 breast cancer cells, which naturally express PD-L1; endogenous in cells; host or cells: MDAMB231 (ATCC); as xenografts in NSG mice for the in vivo units
T5 sequence (Q9NZQ7 19-290): as above
Method: To evaluate the effect of dose on tumor PD-L1 occupancy at the tumor, mice bearing MDAMB231 tumors were injected with escalating doses of AtzMab from 0.009 to 24 mg/kg body weight.

PD-L1 in MDAMB231 tumors [4] = target: T5, PD-L1 in MDAMB231 tumors; test: Effect of AtzMab dose on tumor PD-L1 occupancy, inhibitory sigmoidal Emax model of [64Cu]WL12 % ID/g; format: in vivo
Method: To evaluate the effect of dose on tumor PD-L1 occupancy at the tumor, mice bearing MDAMB231 tumors were injected with escalating doses of AtzMab from 0.009 to 24 mg/kg body weight. […] At the 0.6 and 3.2 mg/kg dose, there was a proportionate decrease in signal intensity in the tumors indicating—for the 3.2 mg/kg dose—a near 100% target engagement at the tumor by the antibody.
The accumulated radioactivity (% ID/g) in the tumors was then used to fit an inhibitory sigmoidal E. model.

[5] = target: T6, PD-L1 in HCC827, H226, hPD-L1 and MDAMB231 cells (Homo sapiens, UniProt Q9NZQ7); test: [64Cu]WL12 binding to PD-L1-positive cells in the presence of 60 nM mAbs; format: cell-based; conditions: 60 nM mAb vs PBS control
T6 construct: Each of which naturally expresses PD-L1; endogenous in cells; host or cells: HCC827, H226, MDAMB231 (endogenous) and CHO-hPD-L1 (stably transfected)
T6 sequence (Q9NZQ7 19-290): as above
Method: Non-interacting residues are shown in gray. […] Mean fluorescence intensities were determined by flow cytometry.
HCC827 and H226 non-small cell lung cancer (NSCLC) cells also were tested.

human PD-L1 = human PD-L1 (Homo sapiens, UniProt Q9NZQ7); conditions: read-out: dissociation constant (Kd), human PD-L1; cited from earlier work
Chain of human PD-L1 (Q9NZQ7 19-290): as above

mouse PD-L1 = mouse PD-L1 (Mus musculus, UniProt Q9EP73); conditions: read-out: dissociation constant (Kd), mouse PD-L1; cited from earlier work
Chain of mouse PD-L1 (Q9EP73 19-290): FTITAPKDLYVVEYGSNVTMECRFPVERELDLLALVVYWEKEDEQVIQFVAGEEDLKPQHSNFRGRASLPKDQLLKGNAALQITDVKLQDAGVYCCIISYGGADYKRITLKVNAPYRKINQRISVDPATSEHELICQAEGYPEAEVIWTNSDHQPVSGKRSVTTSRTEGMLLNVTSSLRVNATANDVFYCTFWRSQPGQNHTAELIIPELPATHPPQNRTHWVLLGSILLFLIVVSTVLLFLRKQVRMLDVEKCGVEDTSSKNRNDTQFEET

PD-L1 in MDAMB231 tumors [6] = target: T5, PD-L1 in MDAMB231 tumors; test: Tumor PD-L1 engagement by PD-L1 mAbs measured with [64Cu]WL12, MDAMB231 xenografts; format: in vivo; conditions: AtzMab 20 mg/kg, AveMab 10 mg/kg, DurMab 10 mg/kg, 24 h prior to tracer

With “AtzMab: therapeutic PD-L1 antibody Atezolizumab” the “reduction of [64Cu]WL12 accumulation in hPD-L1 tumors” value (PD-L1 in hPD-L1 tumors) was 80% and 77%, the “reduction in [64Cu]WL12 % ID/g, H226 xenografts” value (PD-L1 in H226 xenografts) was 34% and the “reduction in [64Cu]WL12 % ID/g, HCC827 xenografts” value [1] was 47%. For the same substance, the “decrease of [64Cu]WL12 binding to doxycycline-treated A549-iPDL1 cells” value [2] was 65%, the “[64Cu]WL12 uptake compared to untreated controls, PET” value (PD-L1 in MDAMB231 tumors [3]; AtzMab 0.06 mg/kg) was “no difference” and the “[64Cu]WL12 tumor uptake at 120 h compared to 24 h” value (PD-L1 in MDAMB231 tumors [3]; AtzMab 0.6 mg/kg) was “significant increase”. For the same substance, the “target engagement at the tumor” value (PD-L1 in MDAMB231 tumors [3]; AtzMab 3.2 mg/kg) was ~100%, the “[64Cu]WL12 tumor uptake at 120 h compared to 24 h” value (PD-L1 in MDAMB231 tumors [3]; AtzMab 10 or 20 mg/kg) was “no significant temporal difference” and the “PD-L1 occupancy at 24 and 120 h” value (PD-L1 in MDAMB231 tumors [3]; atezolizumab 1 mg/Kg) was “increased accumulation of [^64Cu]WL12 can be seen at 120 h but not at 24 h”. For the same substance, the “PD-L1 occupancy at 24 and 120 h” value (PD-L1 in MDAMB231 tumors [3]; atezolizumab 10 mg/Kg) was “complete blockade of PD-L1”, the “less uptake of [64Cu]WL12 in tumors vs saline controls” value (PD-L1 in MDAMB231 tumors [3]; mAb 24 h prior, 120 min after tracer injection, ex vivo) was “approximately 60%” and the ID90 (PD-L1 in MDAMB231 tumors [4]; 90% of Imax) was 0.87 mg/kg. The ID96 (PD-L1 in MDAMB231 tumors [4]; 96% of Imax) was 1.19 mg/kg, the “ID50, dose for 50% of the maximum PD-L1 engagement in the tumor” value (PD-L1 in MDAMB231 tumors [4]; MDAMB231 tumors, 24 h after dose) was 0.43 mg/kg and 0.43 (10%) mg/kg and the “expected average plasma concentration” value (PD-L1 in MDAMB231 tumors [4]; at ID50, assuming Vss 50 mL/kg) was 59 nM and 8.6 mcg/mL. The “expected average plasma concentration” value (PD-L1 in MDAMB231 tumors [4]; at ID90, assuming Vss 50 mL/kg) was 120 nM and 17.4 mcg/mL, the “expected average plasma concentration” value (PD-L1 in MDAMB231 tumors [4]; at ID96, assuming Vss 50 mL/kg) was 164 nM and 23.8 mcg/mL and the Imax (PD-L1 in MDAMB231 tumors [4]; maximum fractional decrease in free PD-L1 ligands, mean (% RSE)) was 0.57 (3%). For the same substance, the Hill coefficient (PD-L1 in MDAMB231 tumors [4]; mean (% RSE)) was 3.12 (19%), the Residual error (PD-L1 in MDAMB231 tumors [4]; mean (% RSE)) was 0.44 (14%) % ID/g and the “Baseline free PD-L1 ligands” value (PD-L1 in MDAMB231 tumors [4]; mean parameter value (% relative standard error)) was 5.91 (1%) % ID/g. The “[64Cu]WL12 accumulation in tumors vs antibody dose” value (PD-L1 in MDAMB231 tumors [4]; various doses, 24 h prior, biodistribution 2 h after tracer) was “reduced with increasing antibody dose”, the “[64Cu]WL12 binding to PD-L1-positive cells” value [5] was “inhibited” and the Kd (human PD-L1) was 430 pM. The Kd (mouse PD-L1) was 130 pM and the “[64Cu]WL12 uptake in MDAMB231 xenografts” value (PD-L1 in MDAMB231 tumors [6]) was “significantly reduced”.
